Source: patent US20190135865A1 (SORBONNE UNIVERSITE, published 2019)
Values belong to the binder of their own block, whether it stands above or below them. Non-standard residues stand in square brackets, D forms with d. No end group written: not given here. NMeR = CN[C@@H](CCCNC(=N)N)C(=O)O; Nle = CCCC[C@H](N)C(=O)O

Legend:
[1] = molecular target: T1, CD47 (UniProt Q08722 19-323, limits assumed); assay: Microscale thermophoresis (MST); NT-647-labelled Jurkat or MEC-1 cell membrane preparation held constant, peptide titrated; linear peptide PKT16, FIG. 5
T1 construct: whole, on cells; The assay used a labelled whole membrane preparation from Jurkat or MEC-1 cells, not purified CD47; also called CD47 receptor
T1 sequence (Q08722 19-323 limits assumed): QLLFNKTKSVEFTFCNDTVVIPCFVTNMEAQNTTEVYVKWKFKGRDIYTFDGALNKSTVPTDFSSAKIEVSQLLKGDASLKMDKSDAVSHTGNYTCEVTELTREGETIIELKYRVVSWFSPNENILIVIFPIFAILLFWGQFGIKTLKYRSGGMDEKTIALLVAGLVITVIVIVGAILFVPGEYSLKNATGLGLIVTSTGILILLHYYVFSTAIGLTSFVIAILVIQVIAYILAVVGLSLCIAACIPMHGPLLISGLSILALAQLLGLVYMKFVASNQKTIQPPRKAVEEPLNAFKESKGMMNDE
Procedure: (§1) Jurkat or Mec-1 cell membrane preparations are labeled using the Nanotemper NT-647 labeling kit as described elsewhere.xliv The labeled preparation is eluted with PBS and stored at 4° C. A stock solution of each peptide is prepared in DMSO (5 mM) and then diluted with PBS. For the peptides evaluated by MST, we have kept the concentration of the NT.115-labeled membrane constant, while the concentration of the ligand (peptide) was varied. After a short incubation the samples were loaded into MST premium glass capillaries and the MST analysis was performed using the Monolith NT.115-pico. […]
(§2) Binding affinity measurements. The binding affinities of peptides, here PKT16, PKTD1, PKTD10, PKTD10-1, PKTD10-3, PKTD10-5, PKDT10-7 and PKTD10-8 for a membrane preparation from Jurkat and/or MEC-1 cells were measured by Microscale Thermophoresis ^xlv on a Monolith NT115-pico system (Nanotemper Technologies, Munich, Germany).
(§3) Binding curve measured by MST. […] A local temperature difference ΔT leads to a local change in molecule concentration (depletion or enrichment), quantified by the Soret coefficient ST: cₕₒₜ/ccold=exP(−STΔT). […] For the peptides evaluated by MST, we have kept the concentration of the NT.115-labeled membrane constant, while the concentration of the ligand (peptide) was varied.

[2] = molecular target: T1, CD47; assay: Microscale thermophoresis (MST); NT-647-labelled Jurkat or MEC-1 cell membrane preparation held constant, peptide titrated; cyclic peptide PKTD10, FIG. 6
Procedure: as §1, §2, §3

[3] = molecular target: T1, CD47; assay: Microscale thermophoresis (MST); NT-647-labelled Jurkat or MEC-1 cell membrane preparation held constant, peptide titrated; cyclic peptide PKTD1, FIG. 6
Procedure: as §1, §2, §3

Kd [1]: 1600 nM
Binder: [dK][NMeR]FYVV[Nle]WK[dK] (also called linear PKT16 peptide) [PKT16 [(D)Lys-(N-Me)Arg-Phe-Tyr-Val-Val-Nle-Trp-Lys-(D)Lys]]

Kd [2]: 49 nM
B1: PKTD10 (peptide)
peptide: SRFYVVMWKPPGLSVKVVNS
HELM: PEPTIDE1{S.R.F.Y.V.V.M.W.K.[dP].P.G.L.S.V.K.V.V.N.S}$PEPTIDE1,PEPTIDE1,1:R1-20:R2$$$V2.0
SMILES: CSCC[C@@H]1NC(=O)[C@H](C(C)C)NC(=O)[C@H](C(C)C)NC(=O)[C@H](Cc2ccc(O)cc2)NC(=O)[C@H](Cc2ccccc2)NC(=O)[C@H](CCCNC(=N)N)NC(=O)[C@H](CO)NC(=O)[C@H](CO)NC(=O)[C@H](CC(N)=O)NC(=O)[C@H](C(C)C)NC(=O)[C@H](C(C)C)NC(=O)[C@H](CCCCN)NC(=O)[C@H](C(C)C)NC(=O)[C@H](CO)NC(=O)[C@H](CC(C)C)NC(=O)CNC(=O)[C@@H]2CCCN2C(=O)[C@H]2CCCN2C(=O)[C@H](CCCCN)NC(=O)[C@H](Cc2c[nH]c3ccccc23)NC1=O
notes: Cyclic peptide, linear representation -S-R-F-Y-V-V-M-W-K-p-P-G-L-S-V-K-V-V-N-S-

Kd [3]: 1.9 nM
B2: PKTD1 (peptide)
peptide: SRFYVVMWKPPGISVKVVKS
HELM: PEPTIDE1{S.R.F.Y.V.V.M.W.K.[dP].P.G.I.S.V.K.V.V.K.S}$PEPTIDE1,PEPTIDE1,1:R1-20:R2$$$V2.0
SMILES: CC[C@H](C)[C@@H]1NC(=O)CNC(=O)[C@@H]2CCCN2C(=O)[C@H]2CCCN2C(=O)[C@H](CCCCN)NC(=O)[C@H](Cc2c[nH]c3ccccc23)NC(=O)[C@H](CCSC)NC(=O)[C@H](C(C)C)NC(=O)[C@H](C(C)C)NC(=O)[C@H](Cc2ccc(O)cc2)NC(=O)[C@H](Cc2ccccc2)NC(=O)[C@H](CCCNC(=N)N)NC(=O)[C@H](CO)NC(=O)[C@H](CO)NC(=O)[C@H](CCCCN)NC(=O)[C@H](C(C)C)NC(=O)[C@H](C(C)C)NC(=O)[C@H](CCCCN)NC(=O)[C@H](C(C)C)NC(=O)[C@H](CO)NC1=O
notes: Cyclic peptide, linear representation -S-R-F-Y-V-V-M-W-K-p-P-G-I-S-V-K-V-V-K-S-
